{"source": "paper PMC2172020", "biological_target": "HIS-CLIP-170 (rat) (UniProt Q9JK25)", "assay": "scanning force microscopy", "data": [{"substance": "HIS-CLIP-170 (from UniProt Q9JK25 1-1320) (natural protein)", "values": [{"measurement": "stoichiometry N", "value": 2}]}]}
